This note sets out measurements from publication doi:10.1101/2020.07.08.194076v1.

Substrate in data set [1]: C=C(C)CCO[P@@](=O)(O)OP(=O)(O)O
As to the kind of experiment: purified protein. As to conditions: co-substrate 100 µM DMAPP.

Substrate in data set [2]: CC(C)=CCOP(=O)(O)OP(=O)(O)O
As to the kind of experiment: purified protein. The settings on record: co-substrate 100 µM IPP.

B1: AtG11 (Arabidopsis thaliana) (protein)
chain: SSIVSSSVVTKEDNLRQSEPSSFDFMSYIITKAELVNKALDSAVPLREPLKIHEAMRYSLLAGGKRVRPVLCIAACELVGGEESTAMPAACAVEMIHTMSLIHDDLPCMDNDDLRRGKPTNHKVFGEDVAVLAGDALLSFAFEHLASATSSDVVSPVRVVRAVGELAKAIGTEGLVAGQVVDISSEGLDLNDVGLEHLEFIHLHKTAALLEASAVLGAIVGGGSDDEIERLRKFARCIGLLFQVVDDILDVTKSSKELGKTAGKDLIADKLTYPKIMGLEKSREFAEKLNREARDQLLGFDSDKVAPLLALANYIAYRQN
Usually Km stands for the concentration of substrate that gives half-maximal velocity. As to B1, the results for the Km in data set [1] and in data set [2] were 38.49 ± 4.94 µM and 32.86 ± 4.86 µM, respectively.

B2: SlG2 (Solanum lycopersicum) (protein)
chain: IATNEKVVMEKEEFNFKVYVAEKAICVNKALDEAIMVKDPPKIHEAMRYSLLAGGKRVRPMLCLAACELVGGNQGNAMAAACAVEMIHTMSLIHDDLPCMDDDDLRRGKPTNHKVYGEDVAVLAGDALLAFAFEYLATATTGVPPSRILVAVAELAKSVGTEGLVAGQVADLACTGNPNVGLEMLEFIHIHKTAALLEASVVIGAILGGGADEEVDKLRRFAQCIGLLFQVVDDILDVTKSSSELGKTAGKDLAVDKTTYPKLLGLEKAKEFAAELNGEAKQQLAAFDSHKAAPLIALADYIANRQN
As to B2, the Km in data set [1] was found to be 79.75 ± 8.33 µM; in data set [2] it was 49.55 ± 5.31 µM.

B3: SlG1 (Solanum lycopersicum) (protein)
chain: VSSKAEKFILPEFEFQEYMVTKAIKVNKALDEAIPMQEPIKVHEAMRYSLLAGGKRVRPILCMASCEVVGGDESLAIPAACAVEMIHTMSLVHDDLPCMDNDDLRRGKPTNHKIFGENTAVLAGDALLSLAFEHVATKTQNVPPQRVVQAIGELGSAVGSEGLVAGQIVDLASEGKQVSLTELEYIHHHKTSKLLEAAVVCGAIMGGGNEVDVERMRSYARCIGLLFQVVDDILDVTKSSDELGKTAGKDLITDKATYPKLMGLEKARQYAGELMAKAMNELSYFDYAKAAPLYHIASYIANRQN
As to B3, the Km is given as 74.18 ± 7.55 µM in data set [1] and 31.82 ± 2.92 µM in data set [2].
